Experimental data as given in the DeepSol protein solubility set.

Test: soluble on expression in E. coli; label from the status in PepcDB or PDB records

| Sequence | soluble on expression in E. coli |
| --- | --- |
| TIKNFTFFSPNSTEFPVGSNNDGKLYMMLTGMDYRTIRRKDWSSPLNTALNVQYTNTSIIAGGRYFELLNETVALKGDSVNYIHANIDLTQTANPVSLSAETANNSNGVDINNGSGVLKVCFDIVTTSGTGVTSTKPIVQTSTLDSISVNDMTVSGSIDVPVQTLTVEAGNGLQLQLTKKNNDLVIVRFFGSVSNIQKGWNMSGTWVDRPFRPAAVQSLVGHFAGRDTSFHIDINPNGSITWWGANIDKTPIATRGNGSYFIKSAW | soluble |
| TKAVHTKHAPAAIGPYSQGIIVNNMFYSSGQIPLTPSGEMVNGDIKEQTHQVFSNLKAVLEEAGASFETVVKATVFIADMEQFAEVNEVYGQYFDTHKPARSCVEVARLPKDALVEIEVIALVK | soluble |
| TKDFGYSFNANYATNTNEVKALGPGNAPIISTGSVDHAYYITKVGEPIGCYYLLVQDGIFSNEEELKKYPHFSNTQPGDFRFVDVDGDGVMDLDKDRTIVGNYMPDFTYGFGGKVWYKGIDLDFNFQGVYGNEILNLNRRYIDNLEGNTNGTTIALNRWKSADNPGNGQVNRANRKSKGYNGRTSTWHLEDGSYLRLQNVTLGYTLPQNLTRRFFVEKLRVYVSGQNLWTSTNYGGYNPEVNARPSNSLSPGEDYGTYPLAKTFLFGLNITL | not soluble |
| TKDFIWNLSFNGTHYSNKILNLPEDKRENGIIHGTASLFRLMEGGSIYDLYTYEYAGVNPETGAAQWYMDEKDANGKVTGRTVTEDYTQASKYELGSTLPDFQGGFSTDFAYKGIDLSIATNFQIGGKIYDSMYSSFMHAGSNIGSNWHKDILNAWTPENKNTNVPIMDGAQNSNSQSSRFLINASFFNIRNISLGYTFPKEWMKAISASSARIYVSADNVALFSKRKGMDPRQYAYGYSAANYSAIRTLSFGINLNF | not soluble |
| TKIAMANFKSAMPIFKSHAYLKELEKTLKPQHFDRVFVFPDFFGLLPNSFLHFTLGVQNAYPRDCGAFTGEITSKHLEELKIHTLLIGHSERRTLLKESPSFLKEKFDFFKSKNFKIVYCIGEELTTREKGFKAVKEFLSEQLENIDLNYPNLVVAYEPIWAIGTKKSASLEDIYLTHGFLKQILNQKTPLLYGGSVNTQNAKEILGIDSVDGLLIGSASWELENFKTIISFL | soluble |
| TLAGRIVLVKIEPLSFSEFCKLKGHEVPYEKVAYARDILSPMLMEYIEKGGFPELVWENDPYKIRSYVRSIVIDRIVTRDIPQEFGIR | not soluble |
| TLREGWVVHYSNKDTLRKRHYWRLDCKCITLFQNNTTNRYYKEIPLSEILTVESAQNFSLVPPGTNPHCFEIVTANATYFVGEMPGGTPGGPSGQGAEAARGWETAIRQALM | soluble |
| TMAGRSMQAARCPTDELSLSNCAVVSEKDYQSGQHVIVRTSPNHKYIFTLRTHPSVVPGSVAFSLPQRKWAGLSIGQEIEVALYSFDKAKQCIGTMTIEIDFLQKKNIDSNPYDTDKMAAEFIQQFNNQAFSVGQQLVFSFNDKLFGLLVKDIEAMDPSILKGEPASGKRQKIEVGLVVGNSQVAFEKAENSSLNLIGKAKTKE | soluble |
| TNHHQRALSYLQYGLDQGEGFIVITGPIGTGKTTIARNLLANIADENIVAAQLVTTKLTPNELLDLVAAEFKITVTGNSKADVLQSIEKFLINLNKQGKRALLLVDEAQNLPVETVEELRMLSNFQLDNKPLIQSFLLGQEELKAIISAPDMEQFRQRIIASAHLKP | not soluble |
| TPGFSLGFIVNMRLHDHFDLRLLPTVGFYSRSIQYDFIKTSEIQTIESTFVEFPLLLKYKSQRRNNSRLYVTGGFKASIEAGAKKKQRKSTDLRTNGFDLCLDMGVGMDIYCPLFKFSPEIRYSHGLLNLLNNDPNVYSSSLSRLSSNTISLFFNFE | not soluble |
| TQDMELNVNVNVTFQQNKLLSLSGMYGGENISAPEYKSLASLDGAGFHGGYNHIVYQMVGQPLGVFYLPHCKGLIADGNGGYTYDIADLNGGGVSLEDGEDRYVAGQAVPKTLLGSNISFRYKRFDLSVQVNGAFGHKIYNGTSLTYMNMNIFPDYNVMKKAPGRNIKDQTATDYWLEKGDYINFDYVTVGWNVPVAKWKKYVQSFRLAFTVNNLATITGYSGLSPMINSSTVNSTLGVDDKRAYPLARTYTLGLSINF | not soluble |
| TQQPIVTGTSVISMKYDNGVIIAADNLGSYGSLLRFNGVERLIPVGDNTVVGISGDISDMQHIERLLKDLVTENAYDNPLADAEEALEPSYIFEYLATVMYQRRSKMNPLWNAIIVAGVQSNGDQFLRYVNLLGVTYSSPTLATGFGAHMANPLLRKVVDRESDIPKTTVQVAEEAIVNAMRVLYYRDARSSRNFSLAIIDKNTGLTFKKNLQVENMKWDFAKDIKGYGTQKI | soluble |
| TRAFQEGSYSSNIKNAAKFYTGLIQLQNPEFGDSSSIDDALPQTDTFISASRANSNIDVILPRVESFALAAKGERSKGVMVLGVDPESENAYSHISDKLVQGEFIASGQNAVLVGGGLAQYLRLKIGDELVLYGAGYRGQTAAGLYRVAGILHFPLQQLDSQLVYMPLDTAQTLYSLDKQVTAWVLNTSNLRVLPSVIEQLKRDYGNSVAVKGWQELSPELSQQIALDKAG | not soluble |
| TSHHHHHMKKIEHKMVAVNGLNMHLAELGEGPTILFIHGFPELWYSWRHQMVYLAERGYRAVAPDLRGYGDTTGAPLNDPSKFSILHLVGDVVALLEAIAPNEEKVFVVAHDWGALIAWHLCLFRPDKVKALVNLSVHFSKRNPKMNVVEGLKAIFGEDHYISRFQVPGEIEAEFAPIGAKSVLKKILTYRDPAPFYFPKGKGLEAIPDAPVALSSWLSEEELDYYANKFEQTGFTGAVNYYRALPINWELTAPWTGAQVKVPTKFIVGEFDLVYHIPGAKEYIHNGGFKKDVPLLEEVVVLEGAAHFVSQERPHEISKHIYDFIQKF | soluble |
| TTEENSKSEALLDIPMLEQYLELVGPKLITDGLAVFEKMMPGYVSVLESNLTAQDKKGIVEEGHKIKGAAGSVGLRHLQQLGQQIQSPDLPAWEDNVGEWIEEMKEEWRHDVEVLKAWVAKATKK | soluble |
| TTPIVHLKGDANTLKCLRYRFKKHCTLYTAVSSTWHWTGHNVKHKSAIVTLTYDSEWQRDQFLSQVKIPKTITVSTGFMSIGGGTGGGSGGGS | soluble |

| Sequence | soluble on expression in E. coli |
| --- | --- |
| VAVGDVDAPVGLVVFSDYQCPFCAKWSDETLPQMMKHVEDGNLRIEWREVNIFGEPSERGARAAYAAGLQDAYLEYHNALFANGEKPSEDLLSEEGLIKLAGDLGLDESKFTADFQSPETAVAIAQHQQLGIDLGAYSTPAFLLGGQPIMGAQPASVFEAAFEQALAAKE | not soluble |
| VDLEKFKFHARIDDDFEDSYIQLLLDAAINYVSKITGVPNDENAPPEYDLAIMILALHWYTNREVLSDRGTNQVPYGLGMLIANLRTN | not soluble |
| VDLGSKSSNSTCRLNVTELASIHPGETWTLHGMCISICYYENVTEDEIIGVAFTWQHNESVVDLWLYQNDTVIRNFSDITTNILQDGLKMRTVPVTKLYTSRMVTNLTVGRYDCLRCENGTTKIIERLYVRLGSLYPRPPGSGLAKHPSVSADEELSA | soluble |
| VDYKTVRCHFGDVELTKWITITDGFTVFSGADYDPELKEIGGKDGSIFIGTKTKHKVIKVPFWVKYNTIEDYDALQLALSSKKPKMLMFSHIPGRYYLAVQVGDLNFKEIKMNGFGEITFIVADAYAHSTSYRRIKDYTQDGNKMTFKIKNNGTAPAFPIFRIKHLGENGYIGITNETGAFAVGSPEEEDGTIVHRNETLFDYSKAIAQALEGAPNVAKLNYMPPTFDSELKRMRLDNILGSGKGGEYVAIGARGTTPGYGEHVGTRTFIINPDSNGEYTLNEHLWWKQIFIATAQDQKGFLKLCVTGENDEFLYGIETYKRKNGFETEYNFFALDDDGVGWRFYKQFEFQADRNYHNPFSMNRSRAVEIFREEDKFRIYFNGAHHHVTVPSLKGKKSRKIHLAMGTCSDSSKYINYNLFEKVNFEKMGVSHYNNIVNKYQPGDEVIINFENDTVSTKDIDSIQDVVLGSKMISIPPGESELVVHLSSWVA | not soluble |
| VEPSEENSKDCVVCQNGTVNWVLLPCRHTCLCDGCVKYFQQCPMCRQFVQESFAL | soluble |
| VFCAGHGVYWVAYDAGNLIKNGENTVEILTSTGEPGKKMDGRIYGTVLAAACENPKAPMVSYQLLTGNINLHGEGWSENIKEVNDRAEVNFSAGQALNNIDSANLSVVYLTGSKGLPDYIEFNGEIPGVPPQYLVEKCGENVRDIANEVSFDSSGDKGAASSYFDMEHIDVLNYLKADNSAVFVRGFDINGDGKIDDQEGEDYLHPVLAALVLTSKNTESVFPDLYPEIRVSEEELIDGKPVEISLTINNPGGICEENCTAVFLVDGNEISRVPIQMGAAGIHRSGILWSGIKGEHRLELFLD | not soluble |
| VGKEKMPVELYHAGEEITQLVREFATDKMKKAVQTFEKLERMENMDRVKEETLAHFEETLEDFEDFVGDIEEVLQDIIKEEVRKLIVHENVRPDNRKLEEIRP | not soluble |
| VGKLQKREYSHEVNDEDLRKKVHDECYARAYEVATSGTGKHERGEAFEKIVEEFKAQYTEEELAEKAEMIARYYHDVEKEAMRRAILDEGKRLDGRKTTEIRP | not soluble |
| VGKQLAALAALVGACMLAAGCTNVVDGTAVAADKSGPLHQDPIPVSALEGLLLDLSQINAALGATSMKVWFNAKAMWDWSKSVADKNCLAIDGPAQEKVYAGTGWTAMRGQRLDDSIDDSKKRDHYAIQAVVGFPTAHDAEEFYSSSVQSWSSCSNRRFVEVTPGQDDAAWTVADVVNDNGMLSSSQVQEGGDGWTCQRALTARNNVTIDIVTCAYSQPDLVAIGIANQIAAKVAKQ | not soluble |
| VHFAPTITFLESPTSDHHWCIPFTVKGNPKPALQWFYNGAILNESKYICTKIHVTNHTEYHGCLQLDNPTHMNNGDYTLIAKNEYGKDEKQISAHFMGWPGID | soluble |
| VKSKAKKTVDKHSDEYKIRRERNNIAVRKSRDKAKMRNLETQHKVLELTAENERLQKKVEQLSRELSTLRNLFKQLPEPLLASSGHC | soluble |
| VKSLFLLVLGNTEISTIPGISVAGATPELTKITPVADAEYLFYEKPLTIDTIPVTPEGHPTPAIITKAARELSNFPILVVRGGTYLAPLIPHVHISNVVGRDFRREPALPEVEVIIERAKLLGKELEKIANEIVIGESTPGGTTTAQAILWALGYEAKTSSASPENPQELKEKVIKEGFKRVGIEKGGLKDKPLEALKEFGDPMIATVLGLSLGFGGDVVLAGGTQMLAVSALLKSLGEDLSRFMIATTRWVVEDPSATFIETAREIGIISYVAELDFSKSKFKGLRDYERGYVKEGVGAGGATWLAV | not soluble |
| VLDSFEILKALKSLDLLKNAPAWWWPNALKFEALLGAVLTQNTKFEAVLKSLENLKNAFILENDDEINLKKIAYIEFSKLAECVRPSGFYNQKAKRLIDLSGNILKDFQSFENFKQEVTREWLLDQKGIGKESADAILCYACAKEVMVVDKYSYLFLKKLGIEIEDYDELQHFFEKGVQENLNSALALYENTISLAQLYARFHGKIVEFSKQKLELKL | soluble |
| VMHSSLYTSVDDKLHGLSENPQAVIQLAINRATEEIKDLENARADASKVEIKPNVSSNTEVILFDKDFTQLLSGNRFLGLDKIKLEKKELGHIYQIQVFNSYGQEEIYRVILMETNISSVSTNIKYAAVLINTSQLEQASQKHEQ | not soluble |
| VNVLKKDITASPVLSETAPTSAPSEAAAANEIKQPIPSQKAEMSELKKLTDIISPELIEPNLVGETSDDIIDELIQKLSRRGALLSESGFKQAILNREQQGTTAIGMNIAIPHGKSEAVREPSVAFGIKRSGVDWE | not soluble |
